Data published in US20090098076A1, “Method For the Production of a Keratin-Binding Effector Molecule” (BASF SE, priority 2005, published 2009).
Each block holds one molecule with its values, some of them ahead of it.

Experiments:
[1] = biological target: human hair keratin (human hair, cut into 5 mm sections) (human); experiment: quantitative hair binding test, anti-polyHis peroxidase conjugate, TMB
hair (human) [2] = experiment: Quantitative binding to hair (KBD activity test hair, Example 10); conditions: for binding to hair, KBD-B compared with comparison protein: binding test on hair, result in words; for measured absorption values at 405 nm (quantitative KBD activity test hair): human hair, detection via His tag with antibody-peroxidase conjugate and TMB
Method: In this test, hair was firstly incubated with KBD and excess KBD was washed off. An antibody-peroxidase conjugate was then coupled via the His tag of the KBD. Nonbound antibody-peroxidase conjugate was washed off again. The bound anti body-peroxidase conjugate [Monoclonal AntipolyHistidine Peroxidase Conjugate, produced in mouse, lyophilized powder, Sigma] can convert a colorless substrate (TMB) into a colored product, which can be measured photometrically at 405 nm. The intensity of the absorption indicates the amount of bound KBD or comparison protein. The comparison protein chosen was, for example, YaaD from B. subtilis, which likewise had—as is necessary for this test—a His tag for the detection. Instead of the His tag, other specific antibodies conjugated with peroxidase can also be used.
(or at least 2 h at room temperature) with gentle swinging movements. • Centrifugation, removal of the supernatant • 3× washing with PBS […] • Incubation with 1 ml monoclonal mouse anti-tag (His6 or HA) antibodies with peroxidase:conjugate (1:2000 in PBS/0.05% Tween 20) [Monoclonal AntipolyHistidine Peroxidase Conjugate, produced in mouse, lyophilized powder, Sigma] for 2-4 h at room temperature, gentle swinging movement • 3× washing with PBS/0.05% Tween 20 • Addition of peroxidase substrate (1 ml/Eppendorf vessel) • Allow reaction to proceed until blue coloration (about 2 minutes). • Stop the reaction with […] of 2 M H2SO4. • The absorption is measured at 405 nm.
Peroxidase Substrate (Prepare Shortly Beforehand):
0.1 ml TMB solution (42 mM TMB in DMSO) +10 ml of substrate buffer (0.1 M sodium acetate pH 4.9) +14.7 μl H2O2 3% strength BSA=Bovine serum albumin PBS=Phosphate buffered salt solution
Tween 20=polyoxyethylene sorbitan monolaureate, n about 20
TMB=3,5,3′,5′-tetramethylbenzidine

[3] = biological target: human skin keratin (human); experiment: quantitative skin binding test (human keratinocytes in microtiter plates), anti-His antibody, TMB; conditions: scale: absorption at 405 nm, standardized to the surface
[4] = biological target: human skin keratin (human); experiment: quantitative skin binding test, loss relative to untreated skin after 10% strength SDS treatment
[5] = biological target: human hair keratin (human hair, cut into 5 mm sections) (human); experiment: quantitative hair binding test, anti-polyHis peroxidase conjugate, TMB; protein denatured (not renatured)
[6] = biological target: human hair keratin (human hair, cut into 5 mm sections) (human); experiment: quantitative hair binding test, loss relative to untreated hair after 10% strength SDS treatment
[7] = biological target: human hair keratin (human hair, cut into 5 mm sections) (human); experiment: quantitative hair binding test, anti-polyHis peroxidase conjugate, TMB; protein renatured
[8] = biological target: human skin keratin (human); experiment: quantitative skin binding test (human keratinocytes in microtiter plates), anti-His antibody, TMB; after 10% strength SDS treatment; conditions: scale: absorption at 405 nm, standardized to the surface
human keratinocytes = experiment: Quantitative binding to skin (Example 15)
Method: (§1) In order to investigate the binding strength of the KBD-D (SEQ ID No.:168) to skin and hair compared to the KBD-B (SEQ ID No.:166), a quantitative test was carried out. In this test firstly hair was incubated with KBD-B or KBD-D and excess KBD-D or -D was washed off. An antibody-peroxidase conjugate was then coupled via the His/tag of the KBD-B or -D. Nonbound antibody-peroxidase conjugate was washed off again. The bound antibody-peroxidase conjugate can convert a colorless substrate (TMB) into a colored product, which was measured photometrically at 405 nm. The intensity of the absorption indicates the amount of bound KBD-B or -D.
The test for binding to skin was carried out with human keratinocytes in microtiter plates as follows. • 2× washing with PBS/0.05% Tween 20 • addition of 1 ml of 1% BSA in PBS and incubation for 1 h at room temperature, gentle swinging movements (900 rpm). • removal of the supernatant • addition of 100 μg of KBD in PBS with 0.03% Tween 20; incubation for 2 h at room temperature and gentle swinging movements (900 rpm). • removal of the supernatant • 3× washing with PBS/0.05% Tween 20 • incubation with 1 ml of monoclonal mouse anti-tag-His6 antibodies for 2-4 h at room temperature, gentle swinging movement (900 rpm) • 3× washing with PBS/0.05% Tween 20 • addition of peroxidase substrate (1 ml/Eppendorf vessels composition see below) reaction until a blue coloration (about 90 seconds). • reaction stopped with 100 μl of 2 M H2SO4. • the absorption was measured at 405 nm.
(§2) Peroxidase Substrate (Prepared Shortly Beforehand):
0.1 ml TMB solution (42 mM TMB in DMSO) +10 ml substrate buffer (0.1 M sodium acetate pH 4.9) +14.7 μl H2O2 3% strength

hair (human) [9] = experiment: Quantitative binding to hair (Example 15); conditions: relative to untreated hair
Method: as §1
In order to characterize the hair binding of the KBD-D compared to the KBD-B, the following binding assay was carried out:
5 mg of hair (human) were cut into sections 5 mm in length and transferred to Eppendorf vessels (protein low-bind). • addition of 1 ml of ethanol for degreasing • centrifugation, removal of ethanol and washing of the hair with H2O • centrifugation, removal of the supernatant • addition of the keratin-binding domains to be tested (coupled to tag—e.g. His6, HA etc.) in 1 ml of PBS/0.05% Tween 20; incubation for 2 h at room temperature with gentle swinging movements • centrifugation, removal of the supernatant • 3× washing with PBS/0.05% Tween 20 • incubation with 1 ml monoclonal mouse anti-tag-(His6 or HA) antibodies with peroxidase conjugate (1:2000 in PBS/0.05% Tween 20) [Monoclonal AntipolyHistidine Peroxidase Conjugate, produced in mouse, lyophilized powder, Sigma] for 2-4 h at room temperature, gentle swinging movement • 3× washing with PBS/0.05% Tween 20 • addition of peroxidase substrate (1 ml/Eppendorf vessel) • allow reaction to proceed until blue coloration (90 seconds). • stop the reaction with 100 μl of 2 M H2SO4.
The absorption was measured at 405 nm
as §2
0.1 ml TMB solution (42 mM TMB in DMSO) +10 ml substrate buffer (0.1 M sodium acetate pH 4.9) +14.7 μl H2O2 3% strength BSA=bovine serum albumin PBS=phosphate buffered salt solution Tween 20=polyoxyethylene sorbitan monolaureate, n about 20 TMB=3,5,3′,5′-tetramethylbenzidine

hair = experiment: Hair-binding activity of KBD-B-panthenol (Example 24a)
Method: In order to check whether KBD-B also binds with coupled panthenol to hair, a quantitative binding assay was carried out (see FIG. 6): In this test, hair was firstly incubated with KBD-B-panthenol and nonbound KBD-B-panthenol was washed off. A peroxidase was then coupled via the His tag of the KBD-B. Nonbound peroxidase was washed off again. The bound peroxidase can convert a colorless substrate (TMB) into a colored product which was measured photometrically at 405 nm. The intensity of the absorption indicates the amount of bonded KBD-B-panthenol. As comparison sample, KBD-B without panthenol was chosen.
Only above a mixing ratio of 1:4 does the hair binding activity decrease. Coupling to lysines or cysteines present in the protein structure which is no longer selective could be responsible for this, which could lead to an unfolding and thus poorer hair coupling of the protein.

Absorption at 405 nm [1]: 0.088 A405 nm
binding to hair, KBD-B compared with comparison protein (hair (human) [2]): significantly poorer binding
measured absorption values at 405 nm (quantitative KBD activity test hair) (hair (human) [2]): A405 nm = 0.088
B1: Comparison protein YaaD from B. subtilis (His-tagged) (protein, UniProt P37527 1-294, looked up)
chain: MAQTGTERVKRGMAEMQKGGVIMDVINAEQAKIAEEAGAVAVMALERVPADIRAAGGVARMADPTIVEEVMNAVSIPVMAKARIGHIVEARVLEAMGVDYIDESEVLTPADEEFHLNKNEYTVPFVCGCRDLGEATRRIAEGASMLRTKGEPGTGNIVEAVRHMRKVNAQVRKVVAMSEDELMTEAKNLGAPYELLLQIKKDGKLPVVNFAAGGVATPADAALMMQLGADGVFVGSGIFKSDNPAKFAKAIVEATTHFTDYKLIAELSKELGTAMKGIEISNLLPEQRMQERGW

Absorption at 405 nm [3]: 0.93
Relative absorption loss after 10% strength SDS treatment in % [4]: 80%
Absorption at 405 nm [5]: 0.254 A405 nm
Relative absorption loss after 10% strength SDS treatment in % [6]: 86%
Absorption at 405 nm [7]: 1.59 A405 nm
Absorption at 405 nm [8]: 0.185
B2: KBD-B (keratin-binding domain B of human desmoplakin), expressed by the vector pQE30-KBD-B in E. coli (SEQ ID No.: 166) (protein)
chain: MRGSHHHHHHGSACELEPHTGLLLLSVQKRSMSFQGIRQPVTVTELVDSGILRPSTVNELESGQISYDEVGERIKDFLQGSSCIAGIYNETTKQKLGIYEAMKIGLVRPGTALELLEAQAATGFIVDPVSNLRLPVEEAYKRGLVGIEFKEKLLSAERAVTGYNDPETGNIISLFQAMNKELIEKGHGIRLLEAQIATGGIIDPKESHRLPVDIAYKRGYFNEELSEILSDPSDDTKGFFDPNTEENLTYLQLKERCIKDEETGLCLLPLKEKKKQVQTSQKNTLRKRRVVIVDPETNKEMSVQEGVDLQPSLIS

Relative absorption loss after 10% strength SDS treatment in %, skin (human keratinocytes; relative to untreated skin): 80%
Absorption at 405 nm, binding to skin after 10% strength SDS treatment (human keratinocytes; values standardized to the surface, after 10% strength SDS treatment): 0.185
Absorption at 405 nm, binding to skin (human keratinocytes; values standardized to the surface, no SDS treatment): 0.93
Relative absorption loss after 10% strength SDS treatment in %, hair (hair (human) [9]): 86%
binding to hair, KBD-B compared with comparison protein (hair (human) [2]): considerable superiority
B3: KBD-B: keratin-binding domain B of human desmoplakin with N-terminal His tag, SEQ ID No.: 166, expressed in E. coli (protein, listed as Homo sapiens)
chain: B2 chain

measured absorption values at 405 nm (quantitative KBD activity test hair) (hair (human) [2]): A405 nm = 0.254
B4: KBD-B denatured: KBD-B (SEQ ID No.: 166) from inclusion bodies, not renatured (protein, listed as Homo sapiens)
chain: B2 chain
modifications: denatured

measured absorption values at 405 nm (quantitative KBD activity test hair) (hair (human) [2]): A405 nm = 1.591
B5: KBD-B renatured: KBD-B (SEQ ID No.: 166) renatured by dialysis (protein, listed as Homo sapiens)
chain: B2 chain
modifications: renatured

influence of coupling reaction temperature on hair binding activity (hair; FIG. 7): no decisive influence
hair binding activity of the coupled protein (hair; above a KBD-B:panthenol mixing ratio of 1:4 (FIG. 7)): decrease
hair binding activity of the coupled protein (hair; up to a KBD-B:panthenol mixing ratio of 1:2, compared with KBD-B without panthenol (FIG. 7)): remains virtually constant
B6: panthenol-coupled KBD-B: KBD-B (SEQ ID No.: 166) coupled via the maleimidocaproic acid linker with panthenol, Example 22 (conjugate, listed as Homo sapiens)
chain: B2 chain
modifications: maleimidocaproic linker-panthenol conjugate
